Data published in US20190119389A1 (POTENZA THERAPEUTICS, published 2019).

Assays:
[1] = target: T1, Recombinant human NRP-1-Fc fusion protein, a1a2b1 domains (human, UniProt O14786 22-424, limits assumed); assay: BLI Octet QKe, antibody on AHC sensor, NRP-1-Fc fragment 500 nM
T1 construct: Only the named domains of hNRP-1 are in the construct; not shown: Fc

[2] = target: T2, Recombinant human NRP-1-Fc fusion protein, a1a2b1b2 domains (human, UniProt O14786 22-583, limits assumed); assay: as above
T2 construct: Only the named domains of hNRP-1 are in the construct; not shown: Fc

binding result [1]: binds | binding result [2]: binds
B1: SEC3 (antibody, human IgG1, kappa, V domains shown)
VH: EVQLVESGGGLVQPGGSLRLSCAASGFTISGYGIHWVRQAPGKGLEWVAYIYPDSGYTDYADSVKGRFTISADTSKNTAYLQMNSLRAEDTAVYYCAREDFRNRRRLWYVMDYWGQGTLVTVSS
VL: DIQMTQSPSSLSASVGDRVTITCRASQDVSTAVAWYQQKPGKAPKLLIYSASFLYSGVPSRFSGSGSGTDFTLTISSLQPEDFATYYCQQAWAYLPTFGQGTKVEIKR
notes: Appendix A gives 144 as light chain and 145 as heavy chain; also called pan-anti-NRP-1 antibody
